According to patent publication US20210301005A1 (Genentech, published 2021):
Numbering of substitutions follows the chain as printed. Read-outs that look alike come from different tables or passages of the source.

T1: human TGFβ2, mature receptor-binding domain (human, UniProt P09858 303-414 (pig entry), The mature TGFβ2 is a disulfide-linked homodimer of this 112-residue chain. The 4A11 epitope spans both monomers (p-1207).)
T1 construct: Peprotech; also called TGFb2
T1 sequence: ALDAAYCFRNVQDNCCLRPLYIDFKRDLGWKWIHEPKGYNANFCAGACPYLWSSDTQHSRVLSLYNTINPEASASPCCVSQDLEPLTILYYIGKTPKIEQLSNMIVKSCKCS

T2: human TGFβ3, mature dimeric form (human, UniProt P10600 301-412)
T2 construct: Peprotech, expressed in E. coli; also called TGFb3
T2 sequence: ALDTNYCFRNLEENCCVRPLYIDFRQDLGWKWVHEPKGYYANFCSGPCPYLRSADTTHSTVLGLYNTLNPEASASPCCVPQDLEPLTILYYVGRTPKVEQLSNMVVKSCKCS

B1: h4A11.v4 (antibody, human IgG1, kappa, N297G, V domains shown)
VH: EQQLQESGPGLVKPSETLSLTCTVTGFSLSSYTVNWVRQPAGKGLEWIGYISYGGSAYYASWANGRFTISKDSSKNQVSLKLSSVTAADTAVYFCARHMQVGGAPTGSMAAFDPWGPGTLVTVSS
VL: DAQLTQSPSSLSASVGDRVTITCQSSQSVYNNNYLSWFQQKPGKPPKLLIYGASTLTSGVPSRFSGSGSGTDFTLTISSLQPEDFATYYCAGGYSGSSDKYAFGGGTKVEIKR
B2: h4A11.v8 (antibody, V domains shown)
VH: B1 VH
VL: DAVLTQTPLSSPVTLGQPASISCQSSQSVYNNNYLSWFQQRPGQPPRLLIYGASTLTSGVPDRFSGSGAGTDFTLKISRVEAEDVGVYYCAGGYSGSSDKYAFGGGTKVEIK
B3: h4A11.v7.17 (antibody, human IgG1, kappa, N297G, V domains shown)
VH: B1 VH with Q2V, V37I, F67V, S73T, F94Y, P117Q
VL: EIVLTQSPGTLSLSPGERATLSCQSSQSVYNNNYLSWFQQKPGQAPRLLIYGASTLTSGIPDRFSGSGSGTDFTLTISRLEPEDFAVYYCAGGYSGSSDKYAFGGGTKVEIKR
B4: h4A11.v7.18 (antibody, human IgG1, kappa, N297G, V domains shown)
VH: B1 VH with Q2V, V37I, F67V, S73T, P117Q
VL: B3 VL
B5: h4A11.v7.16 (antibody, human IgG1, kappa, N297G, V domains shown)
VH: B1 VH with Q2V, V37I, F67V, S73T, V78F, P117Q
VL: B3 VL
B6: h4A11.v5 (antibody, human IgG1, kappa, N297G, V domains shown)
VH: EQQLVESGGGLVQPGGSLRLSCAVSGFSLSSYTVNWVRQAPGKGLEWIGYISYGGSAYYASWANGRFTISKDSAKNSVYLQMNSLRAEDTAVYFCARHMQVGGAPTGSMAAFDPWGPGTLVTVSS
VL: B3 VL with I2A, A45P, I60V
B7: h4A11.v6 (antibody, human IgG1, kappa, N297G, V domains shown)
VH: B6 VH
VL: DAVLTQTPLSSPVTLGQPASISCQSSQSVYNNNYLSWFQQRPGQPPRLLIYGASTLTSGVPDRFSGSGAGTDFTLKISRVEAEDVGVYYCAGGYSGSSDKYAFGGGTKVEIKR
B8: h4A11.v7.19 (antibody, human IgG1, kappa, N297G, V domains shown)
VH: EVQLQESGPGLVKPSETLSLTCTVTGFSLSSYTVNWIRQPAGKGLEWIGYISYGGSAYYASWANGRVTISKDTSQVSLKLSSVTAADTAVYFCARHMQVGGAPTGSMAAFDPWGQGTLVTVSS
VL: B3 VL
B9: h2A10.v2.5 (antibody, human IgG1, kappa, N297G, V domains shown)
VH: EVQLLESGGGLVQPGGSLRLSCAASGFDFNSYGMSWVRQAPGKGLEWVADIVSKTYNYTTYYSDSVKDRFTISRDDSKSTVYLQMNSLRAEDTAVYYCTVAPGGSFDYWGQGTLVTVSS
VL: DIQLTQSPSSLSASVGDRVTITCRASQSVSISRFNLMHWYQHKPGKQPKLLIYRASNLASGIPSRFSGSGSGTDFTLTISSLQPEDFATYYCQHSRESPWTFGGGTKVEIKR
B10: h2A10.v2.7 (antibody, human IgG1, kappa, N297G, V domains shown)
VH: B9 VH with W47L, D76N
VL: B9 VL
B11: h6F12.v3 (antibody, human IgG1, kappa, N297G, V domains shown)
VH: EVTLKESGPVLVKPTETLTLTCTVSGFSLTTYNVHWVRQPPGKALEWMGLIWNTGGTRYNSALKSRLTISKDTSKSQVVLTMTNMDPVDTATYYCARDPVPNKWHFDFWGPGTLVTVSS
VL: EIVMTQSPATLSVSPGERATLSCLASEDIYSNLAWYQQKPGQSPRLLIYDARSLQDGVPARFSGSESGPEYTLTISSLQSEDFAVYFCQQHHAYPFTFGQGTKVEIKR
B12: h6F12.v2 (antibody, human IgG1, kappa, N297G, V domains shown)
VH: EVQLQESGPGLVKPSETLSLTCTVSGFSLTTYNVHWVRQPPGKGLEWMGLIWNTGGTRYNSALKSRLTISKDTSKSQVSLKLSSVTAADTAVYYCARDPVPNKWHFDFWGPGTLVTVSS
VL: DIQMTQSPSTLSASVGDRVTITCLASEDIYSNLAWYQQKPGKSPKLLIYDARSLQDGVPSRFSGSESGPEYTLTISSLQPDDFATYFCQQHHAYPFTFGQGTKVEIKR

Key:
[1] = molecular target: T1, human TGFβ2, mature receptor-binding …; experiment: BIAcore T200
Experimental: (§1) For binding affinity determinations of all humanized 2A10 antibodies, Surface Plasmon Resonance (SPR) measurement with a BIAcore™-T200 instrument was used. Briefly, series S CM5 biosensor chip with protein A was first applied to capture each humanized 2A10 variant to achieve approximately 100 response units (RU) on each flow cell, following by injection of 3-fold serial dilutions of human TGFβ1, TGFβ2 or TGFβ3 (0.02 nM to 5 nM) in HBS-EP buffer (0.01M HEPES pH 7.4, 0.15M NaCl, 3 mM EDTA and 0.05% v/v surfactant P20) at 25° C. with a flow rate of 50 μl/min for kinetics measurement. Association rates (ko.) and dissociation rates (koff) were calculated using a simple one-to-one Langmuir binding model (BIAcore T200 evaluation software version 2.0) to determine the equilibrium dissociation constant (KD), which was calculated as the ratio koff/kₒₙ.
(§2) Binding affinity determinations of all humanized 4A11 antibodies were performed using SPR measurement with a BIAcore™-T200 instrument, as described above in Example 6 ([…]).

[2] = molecular target: T2, human TGFβ3, mature dimeric form; experiment: BIAcore T200
Experimental: as §1, §2

[3] = molecular target: T1, human TGFβ2, mature receptor-binding …; experiment: cell-based or functional assay
[4] = molecular target: T3, human TGFβ1, mature receptor-binding domain (human, UniProt P01137 279-390); experiment: cell-based or functional assay
T3 sequence (P01137 279-390 limits assumed): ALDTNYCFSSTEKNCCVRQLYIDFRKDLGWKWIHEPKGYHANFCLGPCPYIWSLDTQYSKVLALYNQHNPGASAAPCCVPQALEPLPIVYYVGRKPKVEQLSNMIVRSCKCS

[5] = molecular target: T2, human TGFβ3, mature dimeric form; experiment: cell-based or functional assay
[6] = molecular target: T1, human TGFβ2, mature receptor-binding …; experiment: BIAcore T200; remark: listed apart in the source
Experimental: as §1, §2

[7] = molecular target: T2, human TGFβ3, mature dimeric form; experiment: BIAcore T200; remark: listed apart in the source
Experimental: as §1, §2

[8] = molecular target: T1, human TGFβ2, mature receptor-binding …; experiment: cell-based or functional assay; remark: listed apart in the source
[9] = molecular target: T3, human TGFβ1, mature receptor-binding …; experiment: cell-based or functional assay; remark: listed apart in the source
[10] = molecular target: T2, human TGFβ3, mature dimeric form; experiment: cell-based or functional assay; remark: listed apart in the source
[11] = molecular target: T2, human TGFβ3, mature dimeric form; experiment: BIAcore T200; remark: listed apart in the source
[12] = molecular target: T2, human TGFβ3, mature dimeric form; experiment: cell-based or functional assay; remark: listed apart in the source
[13] = molecular target: T1, human TGFβ2, mature receptor-binding …; experiment: cell-based or functional assay; remark: listed apart in the source
[14] = molecular target: T3, human TGFβ1, mature receptor-binding …; experiment: cell-based or functional assay; remark: listed apart in the source
[15] = molecular target: T2, human TGFβ3, mature dimeric form; experiment: cell-based or functional assay; remark: listed apart in the source
[16] = molecular target: T1, human TGFβ2, mature receptor-binding …; experiment: BIAcore T200; remark: listed apart in the source
Experimental: as §1

[17] = molecular target: T2, human TGFβ3, mature dimeric form; experiment: BIAcore T200; remark: listed apart in the source
Experimental: as §1

[18] = molecular target: T1, human TGFβ2, mature receptor-binding …; experiment: BIAcore T200; remark: listed apart in the source
[19] = molecular target: T1, human TGFβ2, mature receptor-binding …; experiment: cell-based or functional assay; remark: listed apart in the source
[20] = molecular target: T3, human TGFβ1, mature receptor-binding …; experiment: cell-based or functional assay; remark: listed apart in the source
[21] = molecular target: T2, human TGFβ3, mature dimeric form; experiment: cell-based or functional assay; remark: listed apart in the source
[22] = molecular target: T1, human TGFβ2, mature receptor-binding …; experiment: cell-based or functional assay; remark: listed apart in the source

| Binder | Kd [1] [nM] | Kd [2] [nM] | HEKBlue TGFβ blocking IC50 [3] [nM] | HEKBlue TGFβ blocking IC50 [4] [nM] | HEKBlue TGFβ blocking IC50 [5] [nM] | Kd [6] [nM] | Kd [7] [nM] | HEKBlue TGFβ blocking IC50 [8] [nM] | HEKBlue TGFβ blocking IC50 [9] [nM] | HEKBlue TGFβ blocking IC50 [10] [nM] | other results |
| --- | --- | --- | --- | --- | --- | --- | --- | --- | --- | --- | --- |
| B1 | 0.01 | 0.0101 | 1.9 | > 200 | 0.08 |  |  |  |  |  |  |
| B2 | 0.0082 | 0.0141 | > 200 | > 200 | 0.66 |  |  |  |  |  |  |
| B3 |  |  |  |  |  | 0.0013 | 0.0032 | 0.16 | > 200 | 0.17 |  |
| B4 |  |  |  |  |  | 0.0011 | 0.0046 | 0.09 | > 200 | 0.11 |  |
| B5 |  |  |  |  |  | 0.0049 | 0.0066 | 0.09 | > 200 | 0.13 |  |
| B6 | 0.0121 | 0.0139 | > 200 | > 200 | 1.4 |  |  |  |  |  |  |
| B7 | 0.0084 | 0.0125 | > 200 | > 200 | 6.7 |  |  |  |  |  |  |
| B8 |  |  |  |  |  | 0.001 | ≤ 0.0013 | 0.05 | > 200 | 0.09 |  |
| B9 |  |  |  |  |  |  |  |  |  |  | fold drop in TGFβ3 binding against h2A10.v2 [11]: 385 fold; fold loss of TGFβ3 blocking against h2A10.v2 [12]: > 10 fold; HEKBlue TGFβ blocking IC50 [13]: > 200 nM; HEKBlue TGFβ blocking IC50 [14]: > 200 nM; HEKBlue TGFβ blocking IC50 [15]: 27.4 nM; Kd [16]: 2.82 nM; Kd [17]: 0.5 nM |
| B10 |  |  |  |  |  |  |  |  |  |  | fold loss of TGFβ3 blocking against h2A10.v2 [12]: > 10 fold; HEKBlue TGFβ blocking IC50 [13]: > 200 nM; HEKBlue TGFβ blocking IC50 [14]: > 200 nM; HEKBlue TGFβ blocking IC50 [15]: 0.12 nM; Kd [16]: 0.921 nM; Kd [17]: 0.0032 nM |
| B11 |  |  |  |  |  |  |  |  |  |  | Kd [18]: ≤ 0.0005 nM; HEKBlue TGFβ blocking IC50 [19]: 0.005 nM; HEKBlue TGFβ blocking IC50 [20]: > 200 nM; HEKBlue TGFβ blocking IC50 [21]: > 200 nM |
| B12 |  |  |  |  |  |  |  |  |  |  | Kd [18]: ≤ 0.0005 nM; fold drop in blocking against r6F12 [22]: 2.5 to 5 fold; HEKBlue TGFβ blocking IC50 [19]: 0.01 nM; HEKBlue TGFβ blocking IC50 [20]: > 200 nM; HEKBlue TGFβ blocking IC50 [21]: > 200 nM |
